In patent US20240417436A1 (BRIGHT PEAK THERAPEUTICS, published 2024):
Like-named read-outs stand apart in the source and are kept apart here. Bridges are numbered along the chain shown (N, C = ends). [ ]: non-standard residue; d: D form. Ygp = O-(8x polyethylene glycol-amino)-tyrosine; Yn3 = O-(9x polyethylene glycol-azido)-tyrosine; hSer = N[C@@H](CCO)C(=O)O; Nle = CCCC[C@H](N)C(=O)O

What was measured:
[1] = target: T1, IL-2 receptor βγ complex on pan T cells (human, UniProt P14784 27-551; P31785 23-369); experiment: cell-based or functional assay
T1 sequence (looked up) 1: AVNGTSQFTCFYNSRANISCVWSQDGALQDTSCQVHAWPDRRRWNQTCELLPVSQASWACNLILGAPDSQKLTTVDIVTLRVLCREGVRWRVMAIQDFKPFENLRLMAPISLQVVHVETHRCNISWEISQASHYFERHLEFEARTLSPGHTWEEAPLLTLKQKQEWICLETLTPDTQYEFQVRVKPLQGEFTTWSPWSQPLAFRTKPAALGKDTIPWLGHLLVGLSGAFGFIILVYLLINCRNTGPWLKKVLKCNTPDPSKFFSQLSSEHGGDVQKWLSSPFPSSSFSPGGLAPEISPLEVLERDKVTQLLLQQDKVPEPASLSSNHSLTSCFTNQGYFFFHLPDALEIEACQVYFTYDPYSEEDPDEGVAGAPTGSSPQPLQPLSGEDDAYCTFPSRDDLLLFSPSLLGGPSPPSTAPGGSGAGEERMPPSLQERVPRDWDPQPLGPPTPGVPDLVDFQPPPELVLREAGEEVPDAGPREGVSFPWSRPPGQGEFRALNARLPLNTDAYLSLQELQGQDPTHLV
T1 sequence (looked up) 2: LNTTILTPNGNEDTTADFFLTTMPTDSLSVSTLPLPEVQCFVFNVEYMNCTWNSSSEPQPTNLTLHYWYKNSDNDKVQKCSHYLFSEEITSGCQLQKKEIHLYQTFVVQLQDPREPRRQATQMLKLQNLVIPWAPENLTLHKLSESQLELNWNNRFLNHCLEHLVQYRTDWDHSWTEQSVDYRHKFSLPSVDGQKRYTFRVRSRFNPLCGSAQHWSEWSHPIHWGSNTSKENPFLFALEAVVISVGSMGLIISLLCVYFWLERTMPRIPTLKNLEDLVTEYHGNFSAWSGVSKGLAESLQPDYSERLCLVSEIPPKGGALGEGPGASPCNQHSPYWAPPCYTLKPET

[2] = target: T2, recombinant human IL-2 receptor beta containing a His-tag and Avi-Tag (R&D Systems #AVI10459) (human, UniProt P14784 27-239); experiment: BLI (Octet), receptor on SAX2 sensor, IL-2 as analyte; construct CMP-151, macrocyclic activatable IL-2 polypeptide
T2 construct: bought protein, held on the Octet SAX2 sensor; also called CD122; IL-2Rβ
T2 sequence (looked up): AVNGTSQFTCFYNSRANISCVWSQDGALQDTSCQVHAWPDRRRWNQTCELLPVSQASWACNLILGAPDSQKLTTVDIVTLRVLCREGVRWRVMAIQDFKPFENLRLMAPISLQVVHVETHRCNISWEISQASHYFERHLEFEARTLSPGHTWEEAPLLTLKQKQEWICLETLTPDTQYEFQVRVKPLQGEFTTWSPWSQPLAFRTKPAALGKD
Experimental: (§1) Bilayer interferometry (BLI) assays were used to measure the binding constants between activatable IL-2 polypeptides (and activated versions thereof) to IL-2 receptor subunits or receptor complexes. BLI assays were conducted on an Octet® R8 instrument. Assay plates were 96 well, polypropylene, F-bottom (chimney well), black microplates (Greiner Bio-one, Cat. No: 655209). The biosensors were Octet® SAX2 (Sartorius, Cat. No: 18-5136). The assay buffer was 1× Kinetic Buffer (Sartorius, Cat. no: 18-5136) or Phosphate Buffered Saline (PBS) that contained 0.02% (v: v) Tween 20 (Polysorbate 20) and 0.1% (w/v) bovine serum albumin (BSA). The sensor was regenerated between measurements in 10 mM glycine pH 2.7 buffer.
(§2) Sensor attached receptors were either recombinant human IL-2 receptor beta containing a His-tag and Avi-Tag™ (R&D Systems™ #AVI10459) or an Avi-Tag™ Fc with human IL-2R beta and IL-2R gamma attached (Acrobiosystems Cat. no: ACRB-ILG-H82F3-25UG). Receptors were reconstituted from lyophilized powder to 500 μg/ml in PBS. Analytes were diluted in Kinetic buffer to 300 nM, then serially diluted to lower concentrations.

[3] = target: human PD-1 on Jurkat T cells (PD-1/PD-L1 Blockade Bioassay) (human, UniProt Q15116 25-288); experiment: cell-based or functional assay
mouse FcRn = target: T3, mouse FcRn (mouse, UniProt Q61559 22-297; P01887 21-119, limits assumed); experiment: analogous AlphaLISA protocol with mouse FcRn
T3 construct: construct not described
T3 sequence (looked up): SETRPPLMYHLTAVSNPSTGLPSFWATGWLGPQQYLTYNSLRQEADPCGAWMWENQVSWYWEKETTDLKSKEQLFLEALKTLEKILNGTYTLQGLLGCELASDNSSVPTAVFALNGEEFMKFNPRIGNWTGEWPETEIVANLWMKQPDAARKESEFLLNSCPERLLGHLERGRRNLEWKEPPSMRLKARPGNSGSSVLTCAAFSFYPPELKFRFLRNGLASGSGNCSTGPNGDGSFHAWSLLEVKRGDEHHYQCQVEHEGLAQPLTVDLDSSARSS
T3 sequence (b2m, looked up): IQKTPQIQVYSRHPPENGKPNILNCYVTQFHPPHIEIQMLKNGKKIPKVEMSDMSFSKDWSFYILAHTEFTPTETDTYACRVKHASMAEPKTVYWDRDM
Experimental: (§3) FcRn Binding Assays—The ability of the activatable immunocytokines to bind to FcRn receptor was performed following manufacturer's instructions using the AlphaLISA FcRn Human Binding kit, Perkin Elmer, Cat #AL3095C. An analogous protocol was performed husing mouse FcRn.

[4] = target: T4, recombinant Human Fc gamma RI/CD64 Protein (R&D systems, 1257-FC-050) (human, UniProt P12314 16-288); experiment: ELISA, test molecule coated, human CD64 titrated
T4 construct: also called human FcgR I (CD64); FcγRI
Experimental: FcγRI (CD64) Binding Assays—The interaction of the activatable immunocytokines with human Fc gamma receptors I (FcγRI/CD64) was measured by ELISA. Briefly, Corning high-binding half-area plates (Fisher Scientific, Reinach, Switzerland) were coated overnight at 4° C. with 25 μl of immunocytokines at […] in PBS. Plates were then washed four times with 100 μl of PBS-0.2% Tween20 (wash buffer). Plates surfaces were blocked with 25 μl of PBS1% BSA at 37° C. for 1h. Plates were then washed four times with wash buffer. Then twenty-five microliters of either recombinant Human Fc gamma RI/CD64 Protein (R&D systems, 1257-FC-050, CF) was added in serial dilutions into PBS-T-0.1% BSA and incubated at 37° C. for 2h. Plates were then washed four times with 100 μl of wash buffer. Twenty-five microliters of Streptavidin-Horseradish peroxidase (#RABHRP3, Merck, Buchs, Switzerland) diluted into PBS-T-0.1% BSA were added to each well and incubated at Room Temperature for 1h. Plates were then washed four times with wash buffer. TMB substrate reagent (#CL07, Merck, Buchs, Switzerland) were added to each well and incubated for 5 min. After 5 min, Horseradish peroxidase reaction was stopped by adding 1M H2SO4 stop solution. ELISA signal was then measured at 450 nm on a plate reader.

[5] = target: T5, human FcRn (AlphaLISA FcRn Human Binding kit, Perkin Elmer AL3095C) (human, UniProt P55899 24-297; P61769 21-119, limits assumed); experiment: AlphaLISA FcRn Human Binding kit (competition)
T5 construct: kit reagent, construct not described
Experimental: as §3

mouse CD64 = target: T6, mouse CD64 (mouse, UniProt P26151 25-297, limits assumed); experiment: ELISA, analogous protocol with mouse CD64
T6 construct: construct not described; also called mouse FcgR I (CD64)
T6 sequence (looked up): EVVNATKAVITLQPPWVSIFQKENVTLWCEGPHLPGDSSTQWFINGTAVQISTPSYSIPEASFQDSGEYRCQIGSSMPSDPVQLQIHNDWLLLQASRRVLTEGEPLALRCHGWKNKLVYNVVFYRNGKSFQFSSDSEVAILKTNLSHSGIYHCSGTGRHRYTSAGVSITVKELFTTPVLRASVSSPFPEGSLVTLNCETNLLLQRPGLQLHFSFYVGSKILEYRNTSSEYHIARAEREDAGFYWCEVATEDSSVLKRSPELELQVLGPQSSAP

[6] = target: T7, recombinant biotinylated PD1/CD279 protein (Biolegend 789406) (human, UniProt Q15116 25-167, limits assumed, biotinylated); experiment: ELISA, test molecule coated, biotinylated PD-1 titrated, streptavidin-HRP
T7 construct: also called human PD1
Experimental: Plates were then washed four times with 100 μl of PBS-0.2% Tween20 (wash buffer). […] Plates were then washed four times with 100 μl of wash buffer. […] Plates were then washed four times with wash buffer. […] Plates were then washed four times with 100 μl of wash buffer. Fifty microliters of TMB substrate reagent (#CL07, Merck, Buchs, Switzerland) were added to each well and incubated at 37° C. during 5 min. After 5 min at 37° C., Horseradish peroxidase reaction was stopped by adding 50 μl/well of 0.5M H₂SO₄ stop solution. ELISA signal was then measured at 450 nm on an EnSpire plate reader from Perkin Elmer (Schwerzenbach, Switzerland).

[7] = target: T2, recombinant human IL-2 receptor beta …; experiment: BLI (Octet), receptor on SAX2 sensor, IL-2 as analyte; construct CMP-168, intact (not the MMP2-treated row r13)
Experimental: as §1, §2

[8] = target: T1, IL-2 receptor βγ complex on pan T cells; experiment: cell-based or functional assay; remark: listed apart in the source
[9] = target: T2, recombinant human IL-2 receptor beta …; experiment: BLI (Octet), receptor on SAX2 sensor, IL-2 as analyte
Experimental: as §1, §2

[10] = target: T8, Avi-Tag Fc with human IL-2R beta and IL-2R gamma attached (Acrobiosystems ACRB-ILG-H82F3-25UG) (human, UniProt P14784 27-239; P31785 23-262); experiment: as above
T8 construct: bought heterodimer; also called CD122 CD132; CD122/CD132 complex
T8 sequence (looked up) 1: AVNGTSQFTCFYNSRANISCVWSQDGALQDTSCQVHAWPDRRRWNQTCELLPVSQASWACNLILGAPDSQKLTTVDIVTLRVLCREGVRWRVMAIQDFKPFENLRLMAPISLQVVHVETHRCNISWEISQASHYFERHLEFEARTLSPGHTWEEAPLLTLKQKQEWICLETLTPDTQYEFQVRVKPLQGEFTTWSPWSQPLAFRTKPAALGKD
T8 sequence (looked up) 2: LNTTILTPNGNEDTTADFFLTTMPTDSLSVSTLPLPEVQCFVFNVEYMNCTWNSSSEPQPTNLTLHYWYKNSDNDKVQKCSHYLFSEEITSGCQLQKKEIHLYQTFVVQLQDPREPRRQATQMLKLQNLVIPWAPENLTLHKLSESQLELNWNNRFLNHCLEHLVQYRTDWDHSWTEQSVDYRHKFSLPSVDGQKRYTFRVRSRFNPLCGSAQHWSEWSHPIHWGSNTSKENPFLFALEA
Experimental: as §1, §2

[11] = target: T2, recombinant human IL-2 receptor beta …; experiment: BLI (Octet), receptor on SAX2 sensor, IL-2 as analyte; construct CMP-165, intact (not the MMP2-treated row r16)
Experimental: as §1, §2

B1: CMP-151 (ligand)
chain: APTSSSTKKTQLQLEHLLLDLQKILNGINNYKNPKLTR[Nle]L[hSer][Yn3]KF[Ygp][Nle]PKKATELKHLQCLEEELKPLEEVL[hSer]LAQSKNFHLRPRDLISNINVIVLELKGSETTF[hSer]CEYADETATIVEFLNRWITFSQSIISTLT
modifications: disulfide 58-105; bridge N-23; not fully specified (bridges)
- Average EC50, pSTAT5 assay in pan T cells, intact molecule [1]: 28.2 nM
- Kd [2]: 65.4 nM

B2: LZM-009 (antibody, human IgG4 S228P, kappa)
heavy: not shown
light: EIVLTQSPATLSLSPGERATISCRASKGVSTSGYSYLHWYQQKPGQAPRLLIYLASYLESGVPARFSGSGSGTDFTLTISSLEPEDFATYYCQHSRELPLTFGTGTKVEIKRTVAAPSVFIFPPSDEQLKSGTASVVCLLNNFYPREAKVQWKVDNALQSGNSQESVTEQDSKDSTYSLSSTLTLSKADYEKHKVYACEVTHQGLSSPVTKSFNRGEC
notes: unconjugated anti-PD-1 IgG4; also called LZM-009 Intact
- Mean EC50, PD1/PD-L1 blockade (NFAT-RE luciferase reporter) [3]: 7.34 nM
- EC50 (mouse FcRn): 0.77 nM
- EC50 [4]: 0.32 nM
- IC50 [5]: 5.79 nM
- EC50 (mouse CD64): 554 nM
- EC50 [6]: 0.05 nM

B3: CMP-168 (ligand)
chain: APTSSSTKKTQLQLEHLLLDLQEILNGINNYKNPKLTR[Nle]L[hSer][Yn3]KF[Ygp][Nle]PKKATELKHLQCLEEELKPLEEVL[hSer]LAQSKNFHLRPRDLISNINVIVLELKGSETTF[hSer]CEYADETATIVEFLNRWITFSQSIISTLT
modifications: disulfide 58-105 (inferred); bridge 9-23; not fully specified (residue 23, bridges)
- Kd [7]: 25.1 µM
- Average EC50, pSTAT5 assay in pan T cells, intact molecule [8]: 144 nM
- koff [9]: 0.0721 s⁻¹
- kon [9]: 2880 M⁻¹ s⁻¹
- Kd [10]: 136 nM
- koff [10]: 0.0022 s⁻¹
- kon [10]: 16200 M⁻¹ s⁻¹

B4: CMP-165 (ligand)
chain: APTSSSTKKTQLQLEHLLLDLQKILNGINNYKNPKLTR[Nle]L[hSer][Yn3]KF[Ygp][Nle]PKKATELKHLQCLEEELKPLEEVL[hSer]LAQSKNFHLRPRDLISNINVIVLELKGSETTF[hSer]CEYADETATIVEFLNRWITFSQSIISTLT
modifications: disulfide 58-105 (inferred); bridge N-23; not fully specified (bridges)
- Kd [11]: 44.2 µM
